Assay [1] has as its target HLA-B*57:01. Put plainly: IEDB peptide-MHC binding, purified MHC/direct/fluorescence; filed as Kd, often an IC50 or EC50 that approximates it; ≥ and ≤ were set here for values at or beyond the usual limits of such assays.
Assay [2] concerns the target HLA-A*02:01. The assay is described as above.
The target in a further assay is HLA-A*26:03. The description is as above.
In assay [3] the target is HLA-B*07:02. The assay is described as above.
For the next assay, the target named is HLA-A*69:01. Described as above.
Assay [4] has as its target HLA-A*30:01. Described as above. To be noted: source organism: Variola virus.
In another assay the target is HLA-A*24:03. Described as above.
In a further assay the target is HLA-B*08:03. The description is as above.
A further assay has as its target HLA-A*01:01. The assay is described as above.
Another assay deals with HLA-C*14:02. The description is as above.
Another assay concerns the target HLA-A*26:01. The description is as above. As to conditions: source organism: Variola virus.
In assay [5] the target is HLA-B*39:01. Described as above. As to conditions: source organism: Variola virus.
Another assay addresses HLA-B*58:01. Described as above.
The target in the next assay is HLA-C*15:02. Described as above. As to conditions: source organism: Variola major virus.
A further assay concerns the target HLA-B*15:09. The description is as above.
In assay [6] the target is HLA-B*18:01. The experiment in a line: IEDB peptide-MHC binding, purified MHC/competitive/fluorescence; filed as Kd, often an IC50 or EC50 that approximates it; ≥ and ≤ were set here for values at or beyond the usual limits of such assays.
Assay [7] concerns the target HLA-A*31:01. The description is as above.
Assay [8] has as its target HLA-B*15:01. The description is as above. As to conditions: source organism: Variola major virus.
In assay [9] the target is HLA-A*68:02. The assay is described as above.
The target of assay [10] is HLA-A*11:01. The description is as above.
For assay [11], the target named is HLA-A*26:02. The description is as above.
In assay [12] the target is HLA-B*15:01. Put plainly: IEDB peptide-MHC binding, purified MHC/direct/fluorescence; filed as Kd, often an IC50 or EC50 that approximates it; ≥ and ≤ were set here for values at or beyond the usual limits of such assays.
Another assay deals with HLA-B*51:01. The assay is described as above.
Assay [13] concerns the target HLA-B*18:01. The assay is described as above. To be noted: source organism: Vibrio vulnificus YJ016.
For assay [14], the target named is HLA-B*15:17. Described as above. To be noted: source organism: Vibrio vulnificus YJ016.
For assay [15], the target named is HLA-A*31:01. The description is as above. As to conditions: source organism: Vibrio vulnificus YJ016.
The target of assay [16] is HLA-A*68:02. Described as above. To be noted: source organism: Vibrio vulnificus YJ016.
The target in a further assay is HLA-B*08:01. Described as above.
Assay [17] concerns the target HLA-A*11:01. The description is as above. To be noted: source organism: Vibrio vulnificus YJ016.
Assay [18] deals with HLA-A*26:02. Described as above. To be noted: source organism: Vibrio vulnificus YJ016.
The target of a further assay is HLA-A*02:11. The assay is described as above. As to conditions: source organism: Vibrio vulnificus YJ016.
Assay [19] addresses HLA-A*02:01. The experiment in a line: IEDB peptide-MHC binding, purified MHC/competitive/fluorescence; filed as Kd, often an IC50 or EC50 that approximates it; ≥ and ≤ were set here for values at or beyond the usual limits of such assays. To be noted: source organism: Vibrio vulnificus YJ016.
Assay [20] concerns the target HLA-B*07:02. Described as above. As to conditions: source organism: Vibrio vulnificus YJ016.
Assay [21] concerns the target HLA-A*30:01. Described as above. To be noted: source organism: Vibrio vulnificus YJ016.
The next assay concerns the target HLA-A*02:06. Described as above. To be noted: source organism: Vibrio vulnificus YJ016.
Assay [22] concerns the target HLA-B*39:01. Described as above. To be noted: source organism: Vibrio vulnificus YJ016.
The target of a further assay is HLA-A*02:03. Described as above. As to conditions: source organism: Vibrio vulnificus YJ016.
The target in a further assay is HLA-A*03:01. Put plainly: IEDB peptide-MHC binding, purified MHC/direct/fluorescence; filed as Kd, often an IC50 or EC50 that approximates it; ≥ and ≤ were set here for values at or beyond the usual limits of such assays. To be noted: source organism: Influenza A virus (A/Swine/Italy/25823/94(H3N2)).
The target of a further assay is HLA-B*27:05. Described as above. To be noted: source organism: Influenza A virus (A/Swine/Italy/25823/94(H3N2)).
The next assay deals with HLA-B*08:02. The assay is described as above. To be noted: source organism: Influenza A virus(A/swine/Shandong/fNY/2003(H9N2)).
In assay [23] the target is HLA-B*57:01. Put plainly: IEDB peptide-MHC binding, purified MHC/competitive/fluorescence; filed as Kd, often an IC50 or EC50 that approximates it; ≥ and ≤ were set here for values at or beyond the usual limits of such assays. To be noted: source organism: Influenza A virus H3N2.
The target of assay [24] is HLA-B*15:17. The assay is described as above. To be noted: source organism: Influenza A virus H3N2.
A further assay concerns the target HLA-B*35:01. The assay is described as above. To be noted: source organism: Influenza A virus H3N2.
The mark [25] stands for this setting: source organism: Buffalopox virus.
Setting [26] is: source organism: Variola major virus.
[27] abbreviates: source organism: Yellow fever virus 17D.
[28] abbreviates: source organism: Giardia lamblia ATCC 50803.
Where [29] appears, read: source organism: Vibrio vulnificus YJ016.
Where [30] appears, read: source organism: Influenza A virus (A/Swine/Italy/25823/94(H3N2)).
Setting [31] is: source organism: Influenza A virus(A/swine/Shandong/fNY/2003(H9N2)).
Where [32] appears, read: source organism: Influenza A virus H3N2.

With RYPGVMYAF, the Kd with HLA-B*57:01 [1] (setting [25]) was at least 20 µM; with HLA-A*02:01 [2] (setting [25]), at least 20 µM; with HLA-A*26:03 (source organism: Variola virus), at least 20 µM; in the assay with HLA-B*07:02 [3] (setting [25]), at least 20 µM; with HLA-A*69:01 (setting [25]), at least 20 µM; with HLA-A*30:01 [4], 4 µM. In addition, the dissociation constant Kd is 0.002 µM in the assay with HLA-A*24:03 (setting [25]); at least 20 µM with HLA-B*08:03 (source organism: Variola virus); at least 20 µM in the assay with HLA-A*01:01 (setting [25]); 0.016 µM with HLA-C*14:02 (setting [26]); at least 20 µM with HLA-A*26:01; at least 20 µM in the assay with HLA-B*39:01 [5]. Besides, the Kd is at least 20 µM with HLA-B*58:01 (setting [25]); at least 20 µM with HLA-C*15:02; at least 20 µM in the assay with HLA-B*15:09 (source organism: Variola virus); 0.989 µM with HLA-B*18:01 [6] (setting [26]); 0.122 µM with HLA-A*31:01 [7] (setting [26]); 3.62 µM in the assay with HLA-B*15:01 [8]. In addition, the results for the dissociation constant (Kd) with HLA-A*68:02 [9] (setting [26]), in the assay with HLA-A*11:01 [10] (setting [26]) and with HLA-A*26:02 [11] (setting [26]) were at least 20 µM, 4.3 µM and 4.76 µM, respectively.

Regarding SVAMCRTPF, the dissociation constant Kd in the assay with HLA-B*15:01 [12] (setting [27]) was 0.032 µM; with HLA-B*51:01 (setting [27]), at least 20 µM.

On to ATAQNRRAL, for which the Kd in the assay with HLA-B*07:02 [3] (setting [28]) is 0.0227 µM; in the assay with HLA-C*14:02 (setting [28]) it was 0.273 µM; with HLA-B*51:01 (setting [28]), at least 20 µM.

With LLRRRPYPL, the dissociation constant Kd with HLA-B*57:01 [1] (setting [29]), in the assay with HLA-B*18:01 [13], in the assay with HLA-B*15:17 [14], with HLA-A*31:01 [15], with HLA-A*26:03 (setting [29]) and in the assay with HLA-A*69:01 (setting [29]) was at least 20 µM throughout. In addition, the dissociation constant (Kd) is at least 20 µM with HLA-A*01:01 (setting [29]); at least 20 µM with HLA-A*68:02 [16]; 0.003 µM with HLA-B*08:01 (setting [29]); at least 20 µM with HLA-A*11:01 [17]; at least 20 µM with HLA-B*58:01 (setting [29]); at least 20 µM in the assay with HLA-A*26:02 [18]. Moreover, the Kd with HLA-A*02:11 is at most 0.001 µM; with HLA-A*02:01 [19], 0.105 µM; with HLA-B*07:02 [20], 0.206 µM; with HLA-A*30:01 [21], 0.441 µM; in the assay with HLA-A*02:06, 2.04 µM; in the assay with HLA-B*39:01 [22] it was at least 20 µM. The same sequence returned a Kd with HLA-A*02:03 of 0.0021 µM.

With SFSFGGFTF, the Kd was at least 20 µM with HLA-A*02:01 [2] (setting [30]); at least 20 µM with HLA-A*03:01; at least 20 µM with HLA-B*27:05; 0.0375 µM in the assay with HLA-B*15:01 [12] (setting [30]); at least 20 µM with HLA-B*07:02 [3] (setting [30]); at most 0.001 µM with HLA-A*24:03 (setting [30]). In addition, the Kd in the assay with HLA-B*08:03 (setting [31]) was at least 20 µM; with HLA-A*01:01 (setting [30]), at least 20 µM; with HLA-B*08:01 (setting [31]), at least 20 µM; with HLA-B*08:02, at least 20 µM; with HLA-B*58:01 (setting [30]), 0.0625 µM; in the assay with HLA-B*15:09 (setting [31]) it was at least 20 µM. Moreover, the Kd with HLA-B*57:01 [23] is 2.36 µM; in the assay with HLA-B*18:01 [6] (setting [32]), 0.2 µM; with HLA-B*15:17 [24] it was 0.04 µM; with HLA-A*31:01 [7] (setting [32]) it was at least 20 µM; in the assay with HLA-B*35:01, 0.285 µM; in the assay with HLA-A*68:02 [9] (setting [32]), 2.44 µM. The figures for the Kd with HLA-A*11:01 [10] (setting [32]) and in the assay with HLA-A*26:02 [11] (setting [32]) were at least 20 µM and 1.84 µM, respectively.

The values are drawn from the Immune Epitope Database (IEDB).
